Eleven molecules from patent publication US20160280799A1 (Ablynx, published 2016) can be followed below.

Assay [1] deals with T1, active catalytic domain of MMP 7 (UniProt P09237 95-267).
T1 construct: domain: catalytic domain
T1 sequence (looked up): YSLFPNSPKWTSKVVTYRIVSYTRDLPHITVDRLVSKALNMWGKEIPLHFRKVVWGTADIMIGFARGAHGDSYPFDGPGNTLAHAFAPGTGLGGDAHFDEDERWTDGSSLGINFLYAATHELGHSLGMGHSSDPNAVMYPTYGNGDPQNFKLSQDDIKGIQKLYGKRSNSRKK
Briefly: dot blot: periplasmic extract on 50 ng catalytic domain immobilized on Hybond C-extra, anti-c-myc detection.

The target of assay [2] is T2, active catalytic domain of MMP 3 (UniProt P08254 100-272).
T2 construct: domain: catalytic domain
The assay is described as above.

The target in assay [3] is active catalytic domain of MMP 13 (UniProt P45452 104-274). Described as above.
In assay [4] the target is T3, active catalytic domain of MMP 1 (UniProt P03956 100-269).
T3 construct: domain: catalytic domain
T3 sequence (looked up): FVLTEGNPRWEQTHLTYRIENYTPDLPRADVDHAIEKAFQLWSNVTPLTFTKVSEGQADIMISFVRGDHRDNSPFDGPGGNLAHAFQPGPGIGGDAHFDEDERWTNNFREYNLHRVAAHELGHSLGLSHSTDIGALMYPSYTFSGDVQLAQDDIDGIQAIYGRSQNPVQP
The assay is described as above.

Assay [5] deals with T4, active catalytic domain of MMP 9 (UniProt P14780 107-444).
T4 construct: domain: catalytic domain
Described as above.

Assay [6] deals with T5, active catalytic domain of MMP 2 (UniProt P08253 110-450).
T5 construct: domain: catalytic domain
The assay is described as above.

Assay [7] concerns the target T6, human MMP-12 catalytic domain (human, UniProt P39900 106-263).
T6 construct: domain: catalytic domain; also called recombinant human catalytic domain of MMP12; human macrophage elastase
Briefly: dot blot: periplasmic extract on 50 ng human MMP-12 catalytic domain on PVDF membrane, anti-c-myc detection.

In assay [8] the target is T7, human EGFR on cells (Her-14 mouse fibroblasts expressing human EGFR; A431 cells) (human, UniProt P00533 25-1210).
T7 construct: whole, on cells; also called EGF receptor
Briefly: phage ELISA on Her-14 cells (mouse fibroblasts expressing human EGFR) against parental 3T3 cells, about 10^9 phage particles, anti-M13 gpVIII-HRP, OD 405nm.

Assay [9] deals with T8, human TNF-alpha (human, UniProt P01375 77-233).
T8 construct: also called TNFα; biotinylated TNF-alpha
Put plainly: ELISA: biotinylated TNFα captured on neutravidin, detection R42. In general terms: An ELISA detects its analyte on a solid surface through an enzyme-linked reagent.

The target in assay [10] is T8, human TNF-alpha. Put plainly: ELISA: biotinylated TNFα captured on neutravidin, detection R42; sample treated with pepsin for 60 min at pH 3.
Assay [11] concerns the target T8, human TNF-alpha. Put plainly: ELISA: biotinylated TNFα captured on neutravidin, detection R42; sample treated with pepsin for 60 min at pH 4.
Assay [12] deals with T8, human TNF-alpha. Briefly: ELISA: biotinylated TNFα captured on neutravidin, detection R42; sample treated with pepsin for 60 min at pH 2.
Assay [13] deals with T6, human MMP-12 catalytic domain. Briefly: binding implied by inhibition in the colorimetric MMP-12 assay; selected on active MMP-12 on nitrocellulose.

T5 sequence (P08253 110-450 limits assumed): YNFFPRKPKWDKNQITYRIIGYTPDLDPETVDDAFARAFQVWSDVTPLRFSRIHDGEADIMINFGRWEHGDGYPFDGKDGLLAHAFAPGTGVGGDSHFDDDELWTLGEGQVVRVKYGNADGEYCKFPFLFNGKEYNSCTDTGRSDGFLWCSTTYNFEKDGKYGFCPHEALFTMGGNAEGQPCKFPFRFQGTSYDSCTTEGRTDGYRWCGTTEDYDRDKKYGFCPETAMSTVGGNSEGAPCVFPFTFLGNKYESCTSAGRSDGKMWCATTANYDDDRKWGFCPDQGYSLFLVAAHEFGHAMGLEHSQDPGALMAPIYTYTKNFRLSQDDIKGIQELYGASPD
T4 sequence (P14780 107-444 limits assumed): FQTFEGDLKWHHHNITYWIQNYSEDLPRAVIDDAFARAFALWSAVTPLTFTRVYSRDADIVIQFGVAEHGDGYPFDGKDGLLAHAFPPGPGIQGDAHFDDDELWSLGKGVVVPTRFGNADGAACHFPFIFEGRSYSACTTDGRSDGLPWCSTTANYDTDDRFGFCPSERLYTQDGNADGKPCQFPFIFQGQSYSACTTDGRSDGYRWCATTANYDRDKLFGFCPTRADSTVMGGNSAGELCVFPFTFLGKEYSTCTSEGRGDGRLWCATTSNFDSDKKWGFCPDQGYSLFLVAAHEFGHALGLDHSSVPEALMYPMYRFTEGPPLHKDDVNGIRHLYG
T2 sequence (P08254 100-272 limits assumed): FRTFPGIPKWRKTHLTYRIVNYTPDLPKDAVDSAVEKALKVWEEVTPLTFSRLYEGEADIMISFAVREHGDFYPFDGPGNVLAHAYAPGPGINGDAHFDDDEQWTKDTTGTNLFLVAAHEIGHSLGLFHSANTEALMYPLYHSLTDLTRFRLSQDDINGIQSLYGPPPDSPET
T6 sequence (P39900 106-263 limits assumed): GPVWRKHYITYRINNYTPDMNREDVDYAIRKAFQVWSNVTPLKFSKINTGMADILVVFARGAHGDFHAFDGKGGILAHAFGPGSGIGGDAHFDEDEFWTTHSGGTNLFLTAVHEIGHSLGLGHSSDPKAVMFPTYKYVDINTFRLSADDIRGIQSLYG
T8 sequence (P01375 77-233 limits assumed): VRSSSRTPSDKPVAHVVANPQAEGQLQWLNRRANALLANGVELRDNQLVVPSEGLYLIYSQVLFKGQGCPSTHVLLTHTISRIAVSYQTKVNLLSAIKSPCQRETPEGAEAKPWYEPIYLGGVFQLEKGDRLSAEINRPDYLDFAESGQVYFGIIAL

B1: MMP-12 P1-44 (VHH)
VHH: QVQLQESGGGLVQPGGSLRLSCAASGFTFNNHWLYWVRQAQGKGLEWVSAINPGGSTVYLDSVKGRFTISRGNTKNTLYLQMNSLKSEDTAVYYCTKAMAWATDWDEYDLWGQGTQVTVSS
Take B1: the binding result in assay [1], in assay [2], in assay [3], in [4], in [5] and in [6] was “no binding” throughout. Besides, the binding result in assay [7] is “binds”.

B2: EGFR-F11 (VHH)
VHH: QVQLQESGGRLVQAGGSLRLSCAASEHTFRGYAIGWFRQAPGKEREFVSSITYDGTLTNYADSVTGRFTISRDNAKNTVYLQMNSLKPEDTAVYVCAAGYSYRYTTLNQYDSWGQGTQVTVSS
Regarding B2, in assay [8], the binding result is on record as “binds”.

B3: MMP-12 P1-41 (VHH)
VHH: QVQLQDSGGGLVRTGDSLRLSCVVFGGTISTYAMGWFRRAPGKEREFVAAIDASGGFTEYADSVRGRFRIARDNPLSAVYLQMNSLKPEDTAFYYCAADKDRDTVVRFTTTPNEYDYWGQGTQVTVSS
In the case of B3, the binding result in assay [1], in [2], in assay [3], in [4], in assay [5] and in assay [6] was “no binding” each time. Besides, the binding result in assay [7] is recorded as “binds”.

B4: EGFR-1.38 (VHH)
VHH: QVQLQDSGGGLVQAGDSLRLSCAASGRSFGGYAMGWFRQAPGKEREFVAAISWSGGSTYYADSLKGRFTISRDNAKNTVYLQMNSLKPEDTALYYCAAGLRPSPNYNHERSYDYWGQGTQVTVSS
Consider B4, for which the binding result in assay [8] is “binds”.

B5: VHH#3E-His tag (VHH)
VHH: QVQLQESGGGLVQPGGSLRLSCAASGRTFSDHSGYTYTIGWFRQAPKEREFVARIYWSSGNTYYADSVKGRFAISRDIAKNTVDLTMNNLEPEDTAVYYCAARDGIPTSRSVESYNYWGQGTQVTVSS
notes: also called TNF3E; VHH TNF3E
With B5, the concentration giving a half-maximal response (EC50 (read off the curve)) in assay [9] is around 0.02 mg/L; in assay [10], around 0.01 mg/L; in [11], around 0.009 mg/L; in assay [12], around 0.03 mg/L.

B6: EGFR-B11 (VHH)
VHH: QVQLQDSGGGLVQAGGSLRLSCAASRFSSAQYAIGWFRQAPGKEREGVSYITFSGGPTGYADSVKGRFTVSRDNAKNTVYLQMNSLKPEDTAVYYCAARPYTRPGSMWVSSLYDNWGQGTQVTVSS
Turning to B6, in assay [8], the binding result was “binds”.

B7: MMP-12 P1-1 (VHH)
VHH: QVQLQESGGGLVQPGGSLRLSCVASGFTFSDYPMAWVRQAPGKGLEWISVINSGGVNTSYAASVKGRFTISRDNAKNTLFLQMNSLKPEDTAVYYCAKYSLKNEQYWRGQGTQVTVSS
B7: the binding result in assay [1], in assay [2], in assay [3], in assay [4], in assay [5] and in assay [6] was “no binding” throughout. Also, the binding result in assay [7] is “binds”.

B8: EGFR-IIIa5 (VHH)
VHH: EVQLVESGGGLVQAGGSLRLSCTASGRTFSSYAMGWFRQTPGKEREFVAAITSSGGSTYYADSVKGRFTISRDNAKSTMYLQMDSLMLDDTSVYYCAADSSRPQYSDSALRRILSLSNSYPYWGQGTQVTVSS
For B8, in assay [8], the binding result is “binds”.

B9: MMP-12 P1-26 (VHH)
VHH: QVQLQESGGGLVRAGGSLRLSCVASGRTLSKYRMGWFRQFPGKERELVAEIEWKSSSTWYRDSVKGRFTISRDNAKNTVYLRMNSLKPEDTAVYYCAAATLGEPLVKYTYWGQGTQVTVSS
B9: the binding result in [1], in [2], in assay [3], in assay [4], in [5] and in [6] was “no binding” in each case. For the same molecule, the binding result in assay [7] was “binds”.

B10: MMP-12 P5-29 (VHH)
VHH: QVQLQESGGGLVQAGGSLRLSCAASGRTFTVYTTGWFRQAPGKEREFVAAIDWSGSSTYYTDSVKGRFTISRDNTKNTVYLQMNSLKPEDTAVYYCAARDAIVGVTDTSGYRYWGQGTQVTVSS
notes: also called clone P5-29
Turning to B10, the binding result in assay [13] is on record as “binds”.

B11: EGFR-4.21 (VHH)
VHH: EVQLVESGGGLVQAGGSLRLSCAVSGRTFSSMGWFRQAPGKEREFVATINLSGDRTDYADSVKGRFTISRDNPKNTVYLQMDSLEPEDSAVYYCAGTSLYPSNLRYYTLPGTYADWGQGTQVTVSS
Turning to B11, in assay [8], the binding result was “binds”.

What is called EC50 (read off the curve) is the concentration giving half of the maximal effect. A low value points to greater potency.
